In assay [1] the target is T1, C5a2-Venus (UniProt Q9P296 1-337). As to the kind of experiment: cell-based or functional assay.
The target in another assay is T2, C5a receptor 1 (human, UniProt P21730 1-350).
T2 construct: whole, on cells; Also used here for native C5a1 on human macrophages; also called C5a1; CD88
T2 sequence (looked up): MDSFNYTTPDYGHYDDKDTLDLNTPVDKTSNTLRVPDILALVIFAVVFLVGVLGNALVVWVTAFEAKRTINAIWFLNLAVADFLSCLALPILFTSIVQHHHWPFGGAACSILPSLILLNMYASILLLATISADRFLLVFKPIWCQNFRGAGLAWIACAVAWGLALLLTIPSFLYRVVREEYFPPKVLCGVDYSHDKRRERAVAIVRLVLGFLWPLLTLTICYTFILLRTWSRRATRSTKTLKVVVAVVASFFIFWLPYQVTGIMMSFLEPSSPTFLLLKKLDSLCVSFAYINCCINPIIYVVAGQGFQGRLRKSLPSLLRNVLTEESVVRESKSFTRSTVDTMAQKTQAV
As to the kind of experiment: 125I-C5a displacement on C5aR1 membranes.

Assay [2] has as its target T3, Human C5a receptor 2 (human, UniProt Q9P296 1-337).
T3 construct: whole, on cells; also used here for native C5a2 on human monocyte derived macrophages and for the human C5a2 of the DiscoveRx PathHunter kit; also called C5a2; C5L2
As to the kind of experiment: 125I-C5a displacement, SPA on Flp-In CHO-C5a2 membranes. On the procedure:
P32 and P59 were previously shown to have no activity (either as an agonist or antagonist) up to a concentration of 100 μM, when the library was previously screened for activity at C3aR and C5a1²⁷.
(§1) C5a2 receptor binding studies were performed using a modification of a previously described scintillation proximity assay (SPA) method⁴⁸. Briefly, C5a2 SPA studies were performed in 96-well white isoplates with clear flat bottoms (Perkin Elmer, Waltham, Mass., USA). SPA beads (200 μg/well) were added, following the addition of various concentrations of competing ligands or buffer (6 pM to 500 μM) in a total volume of 80 μL of assay buffer (50 mM Tris-HCl, pH 7.4, 0.5% BSA, 5 mM MgCl₂, 1 mM CaCl₂). ¹²⁵I-C5a (˜20 pM) (specific activity, 2200 Ci mmol⁻¹) (Perkin Elmer) was added to C5a2 membrane preparations (˜2 μg/well). The final reaction volume per well comprised 20 μL of ligand/buffer, 20 μL of SPA beads, 20 μl of membrane and the assay was initiated by the addition of 20 μL of ¹²⁵I-C5a. The plate was then sealed using TopSeal-A (Perkin Elmer) sealing film and incubated with shaking for 1 h at room temperature. Radioligand binding was then assessed for 30 s/well using a 1450 Microbeta scintillation counter (Perkin Elmer).

In assay [3] the target is T1, C5a2-Venus. As to the kind of experiment: cell-based or functional assay. This is another data set of the same source.
For assay [4], the target named is T3, Human C5a receptor 2. The assay is described as follows: 125I-C5a displacement, SPA on Flp-In CHO-C5a2 membranes. On the procedure:
To further address this issue, C5a2 SPA was used to test for the binding of C3a or C3a-des arg to C5a2.
as §1
The source holds these as a separate data set.

Read-outs that look alike come from different tables or passages of the source.

T3 sequence (Q9P296 whole entry): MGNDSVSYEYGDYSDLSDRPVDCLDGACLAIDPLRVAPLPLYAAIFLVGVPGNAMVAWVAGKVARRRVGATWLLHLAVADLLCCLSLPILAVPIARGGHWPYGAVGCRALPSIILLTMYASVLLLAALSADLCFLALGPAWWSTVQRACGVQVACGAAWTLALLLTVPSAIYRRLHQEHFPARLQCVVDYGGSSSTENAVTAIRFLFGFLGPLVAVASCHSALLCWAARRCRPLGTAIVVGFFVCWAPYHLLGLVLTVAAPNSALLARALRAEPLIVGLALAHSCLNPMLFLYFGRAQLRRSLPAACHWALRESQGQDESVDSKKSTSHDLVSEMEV
T1 sequence (Q9P296 whole entry): as above

B1: Peptide P32, Ac-RHYPYWR-OH (peptide)
peptide: Ac-RHYPYWR-OH
notes: Synthetic, computationally designed heptapeptide based on the C-terminus of C5a
Regarding B1, the “fold higher efficacy of β-arrestin 2 recruitment than the affinity for C5a2” value with C5a2-Venus [1] was ~37 fold. The Ki with C5a receptor 1 worked out at 234 µM; with Human C5a receptor 2 [2], 223 µM. Moreover, the “C5a2-β-arrestin 2 BRET Recruitment (% of C5a)” value with C5a2-Venus [3] is 28.8 % of C5a.

B2: Human recombinant C5a (ligand, UniProt P01031 678-751, looked up)
chain: TLQKKIEEIAAKYKHSVVKKCCYDGACVNNDETCEQRAARISLGPRCIKAFTECCVVASQLRANISHKDMQLGR
notes: also called native C5a
B2: the Ki in the assay with Human C5a receptor 2 [2] was 0.0013 µM. For the same molecule, the “C5a2-β-arrestin 2 BRET Recruitment (% of C5a)” value in the assay with C5a2-Venus [3] is 100 % of C5a.

B3: Human isolated C5a-des Arg (ligand, UniProt P01031 678-750, looked up)
chain: TLQKKIEEIAAKYKHSVVKKCCYDGACVNNDETCEQRAARISLGPRCIKAFTECCVVASQLRANISHKDMQLG
Take B3: affinity in the assay with Human C5a receptor 2 [4] was put at a Ki of 0.0015 µM.

B4: Peptide P59, Ac-LIRLWR-OH (peptide)
peptide: Ac-LIRLWR-OH
notes: Synthetic, computationally designed hexapeptide based on the C-terminus of C5a
As to B4, the “fold higher efficacy of β-arrestin 2 recruitment than the affinity for C5a2” value with C5a2-Venus [1] is ~6 fold. Moreover, the Ki stood at 466 µM with C5a receptor 1 and 48 µM with Human C5a receptor 2 [2]. Further, the “C5a2-β-arrestin 2 BRET Recruitment (% of C5a)” value with C5a2-Venus [3] is 52.9 % of C5a.

Source of the values: US20170129921A1 (University of California, published 2017).
